From patent US20170101454A1 (Novo Nordisk, published 2017)
Starred links: 1 amine or outer side, 2 acyl side, 3 side chain; linkers in the order of their positions; H or OH if unused. Non-standard residues stand in square brackets, D forms with d. Groups on a side chain read outwards from the residue. No end group written: not given here. *: point of attachment. C18 diacid = O=C(O)CCCCCCCCCCCCCCCCC(=O)*; γGlu = O=C(O)[C@H](CCC(=O)[*:2])N[*:1]; Ac4c = NC1(C(=O)O)CCC1; AEEA = NCCOCCOCC(=O)O; Aib = CC(C)(N)C(=O)O

B1: N^ε28-[2-[2-[2-[[2-[2-[2-[[(4S)-4-carboxy-4-[[(4S)-4-carboxy-4-[[(4S)-4-carboxy-4-(17-carboxyheptadecanoylamino)butanoyl]amino]butanoyl]amino]butanoyl]amino]eth … (peptide)
peptide: H[Aib]QGTFTSDLSKYLESRRARDFVQWLIK([AEEA-AEEA-γGlu-γGlu-γGlu-C18 diacid])T-NH2
modifications: N-terminus assumed
SMILES: CC[C@H](C)[C@H](NC(=O)[C@H](CC(C)C)NC(=O)[C@H](Cc1c[nH]c2ccccc12)NC(=O)[C@H](CCC(N)=O)NC(=O)[C@@H](NC(=O)[C@H](Cc1ccccc1)NC(=O)[C@H](CC(=O)O)NC(=O)[C@H](CCCNC(=N)N)NC(=O)[C@H](C)NC(=O)[C@H](CCCNC(=N)N)NC(=O)[C@H](CCCNC(=N)N)NC(=O)[C@H](CO)NC(=O)[C@H](CCC(=O)O)NC(=O)[C@H](CC(C)C)NC(=O)[C@H](Cc1ccc(O)cc1)NC(=O)[C@H](CCCCN)NC(=O)[C@H](CO)NC(=O)[C@H](CC(C)C)NC(=O)[C@H](CC(=O)O)NC(=O)[C@H](CO)NC(=O)[C@@H](NC(=O)[C@H](Cc1ccccc1)NC(=O)[C@@H](NC(=O)CNC(=O)[C@H](CCC(N)=O)NC(=O)C(C)(C)NC(=O)[C@@H](N)Cc1c[nH]cn1)[C@@H](C)O)[C@@H](C)O)C(C)C)C(=O)N[C@@H](CCCCNC(=O)COCCOCCNC(=O)COCCOCCNC(=O)CC[C@H](NC(=O)CC[C@H](NC(=O)CC[C@H](NC(=O)CCCCCCCCCCCCCCCCC(=O)O)C(=O)O)C(=O)O)C(=O)O)C(=O)N[C@H](C(N)=O)[C@@H](C)O
notes: also called Chem. 3; Chem 3
B2: N^ε28-[(4S)-4-carboxy-4-[[2-[2-[2-[[(4S)-4-carboxy-4-[[2-[2-[2-[[(4S)-4-carboxy-4-[[2-[2-[2-[[(4S)-4-carboxy-4-[[(4S)-4-carboxy-4-(17-carboxyheptadecanoylamino) … (peptide)
peptide: HXQGTFTSDYSRYLESRRARDFVQWLIKT
modifications: Aib at position 2; epsilon-N of Lys28 acylated with the substituent given in the name (17-carboxyheptadecanoyl-2xgGlu-Ado-gGlu-Ado-gGlu-Ado-gGlu-); C-terminal amide
notes: also called Chem. 37; Chem 37
B3: N^ε28-[(4S)-4-carboxy-4-[[2-[2-[2-[[(4S)-4-carboxy-4-[[2-[2-[2-[[(4S)-4-carboxy-4-[[2-[2-[2-[[(4S)-4-carboxy-4-[[(4S)-4-carboxy-4-(17-carboxyheptadecanoylamino) … (peptide)
peptide: HXQGTFTSDYSRYLESRRARDFVQWLIKT
modifications: Acb at position 2; epsilon-N of Lys28 acylated with the substituent given in the name (17-carboxyheptadecanoyl-2xgGlu-Ado-gGlu-Ado-gGlu-Ado-gGlu-); C-terminal amide
notes: also called Chem. 36; Chem 36
B4: N^ε28-[(4S)-4-carboxy-4-[[(4S)-4-carboxy-4-[[2-[2-[2-[[2-[2-[2-[[(4S)-4-carboxy-4-(17-carboxyheptadecanoylamino)butanoyl]amino]ethoxy]ethoxy]acetyl]amino]ethoxy … (peptide)
peptide: H[Aib]QGTFTSDYSKYLDLRRARDFVAWLIK([γGlu-γGlu-AEEA-AEEA-γGlu-C18 diacid])T-NH2
modifications: N-terminus assumed
SMILES: CC[C@H](C)[C@H](NC(=O)[C@H](CC(C)C)NC(=O)[C@H](Cc1c[nH]c2ccccc12)NC(=O)[C@H](C)NC(=O)[C@@H](NC(=O)[C@H](Cc1ccccc1)NC(=O)[C@H](CC(=O)O)NC(=O)[C@H](CCCNC(=N)N)NC(=O)[C@H](C)NC(=O)[C@H](CCCNC(=N)N)NC(=O)[C@H](CCCNC(=N)N)NC(=O)[C@H](CC(C)C)NC(=O)[C@H](CC(=O)O)NC(=O)[C@H](CC(C)C)NC(=O)[C@H](Cc1ccc(O)cc1)NC(=O)[C@H](CCCCN)NC(=O)[C@H](CO)NC(=O)[C@H](Cc1ccc(O)cc1)NC(=O)[C@H](CC(=O)O)NC(=O)[C@H](CO)NC(=O)[C@@H](NC(=O)[C@H](Cc1ccccc1)NC(=O)[C@@H](NC(=O)CNC(=O)[C@H](CCC(N)=O)NC(=O)C(C)(C)NC(=O)[C@@H](N)Cc1c[nH]cn1)[C@@H](C)O)[C@@H](C)O)C(C)C)C(=O)N[C@@H](CCCCNC(=O)CC[C@H](NC(=O)CC[C@H](NC(=O)COCCOCCNC(=O)COCCOCCNC(=O)CC[C@H](NC(=O)CCCCCCCCCCCCCCCCC(=O)O)C(=O)O)C(=O)O)C(=O)O)C(=O)N[C@H](C(N)=O)[C@@H](C)O
notes: also called Chem. 33; Chem 33
B5: N^ε28-[(4S)-4-carboxy-4-[[(4S)-4-carboxy-4-[[2-[2-[2-[[2-[2-[2-[[(4S)-4-carboxy-4-(17-carboxyheptadecanoylamino)butanoyl]amino]ethoxy]ethoxy]acetyl]amino]ethoxy … (peptide)
peptide: H[Aib]QGTFTSDYSKYLDARRARDFVAWLIK([γGlu-γGlu-AEEA-AEEA-γGlu-C18 diacid])T-NH2
modifications: N-terminus assumed
SMILES: CC[C@H](C)[C@H](NC(=O)[C@H](CC(C)C)NC(=O)[C@H](Cc1c[nH]c2ccccc12)NC(=O)[C@H](C)NC(=O)[C@@H](NC(=O)[C@H](Cc1ccccc1)NC(=O)[C@H](CC(=O)O)NC(=O)[C@H](CCCNC(=N)N)NC(=O)[C@H](C)NC(=O)[C@H](CCCNC(=N)N)NC(=O)[C@H](CCCNC(=N)N)NC(=O)[C@H](C)NC(=O)[C@H](CC(=O)O)NC(=O)[C@H](CC(C)C)NC(=O)[C@H](Cc1ccc(O)cc1)NC(=O)[C@H](CCCCN)NC(=O)[C@H](CO)NC(=O)[C@H](Cc1ccc(O)cc1)NC(=O)[C@H](CC(=O)O)NC(=O)[C@H](CO)NC(=O)[C@@H](NC(=O)[C@H](Cc1ccccc1)NC(=O)[C@@H](NC(=O)CNC(=O)[C@H](CCC(N)=O)NC(=O)C(C)(C)NC(=O)[C@@H](N)Cc1c[nH]cn1)[C@@H](C)O)[C@@H](C)O)C(C)C)C(=O)N[C@@H](CCCCNC(=O)CC[C@H](NC(=O)CC[C@H](NC(=O)COCCOCCNC(=O)COCCOCCNC(=O)CC[C@H](NC(=O)CCCCCCCCCCCCCCCCC(=O)O)C(=O)O)C(=O)O)C(=O)O)C(=O)N[C@H](C(N)=O)[C@@H](C)O
notes: also called Chem. 32; Chem 32
B6: N^ε28-[(4S)-4-carboxy-4-[[2-[2-[2-[[2-[2-[2-[[(4S)-4-carboxy-4-[[(4S)-4-carboxy-4-(17-carboxyheptadecanoylamino)butanoyl]amino]butanoyl]amino]ethoxy]ethoxy]acet … (peptide)
peptide: H[Aib]QGTFTSDVSKYLDARRAQDFVQWLIK([γGlu-AEEA-AEEA-γGlu-γGlu-C18 diacid])T-NH2
modifications: N-terminus assumed
SMILES: CC[C@H](C)[C@H](NC(=O)[C@H](CC(C)C)NC(=O)[C@H](Cc1c[nH]c2ccccc12)NC(=O)[C@H](CCC(N)=O)NC(=O)[C@@H](NC(=O)[C@H](Cc1ccccc1)NC(=O)[C@H](CC(=O)O)NC(=O)[C@H](CCC(N)=O)NC(=O)[C@H](C)NC(=O)[C@H](CCCNC(=N)N)NC(=O)[C@H](CCCNC(=N)N)NC(=O)[C@H](C)NC(=O)[C@H](CC(=O)O)NC(=O)[C@H](CC(C)C)NC(=O)[C@H](Cc1ccc(O)cc1)NC(=O)[C@H](CCCCN)NC(=O)[C@H](CO)NC(=O)[C@@H](NC(=O)[C@H](CC(=O)O)NC(=O)[C@H](CO)NC(=O)[C@@H](NC(=O)[C@H](Cc1ccccc1)NC(=O)[C@@H](NC(=O)CNC(=O)[C@H](CCC(N)=O)NC(=O)C(C)(C)NC(=O)[C@@H](N)Cc1c[nH]cn1)[C@@H](C)O)[C@@H](C)O)C(C)C)C(C)C)C(=O)N[C@@H](CCCCNC(=O)CC[C@H](NC(=O)COCCOCCNC(=O)COCCOCCNC(=O)CC[C@H](NC(=O)CC[C@H](NC(=O)CCCCCCCCCCCCCCCCC(=O)O)C(=O)O)C(=O)O)C(=O)O)C(=O)N[C@H](C(N)=O)[C@@H](C)O
notes: also called Chem. 39; Chem 39
B7: N^ε28-[(4S)-4-carboxy-4-[[2-[2-[2-[[2-[2-[2-[[(4S)-4-carboxy-4-[[(4S)-4-carboxy-4-(17-carboxyheptadecanoylamino)butanoyl]amino]butanoyl]amino]ethoxy]ethoxy]acet … (peptide)
peptide: H[Aib]QGTFTSDLSKYLDVRRAQDFVQWLIK([γGlu-AEEA-AEEA-γGlu-γGlu-C18 diacid])T-NH2
modifications: N-terminus assumed
SMILES: CC[C@H](C)[C@H](NC(=O)[C@H](CC(C)C)NC(=O)[C@H](Cc1c[nH]c2ccccc12)NC(=O)[C@H](CCC(N)=O)NC(=O)[C@@H](NC(=O)[C@H](Cc1ccccc1)NC(=O)[C@H](CC(=O)O)NC(=O)[C@H](CCC(N)=O)NC(=O)[C@H](C)NC(=O)[C@H](CCCNC(=N)N)NC(=O)[C@H](CCCNC(=N)N)NC(=O)[C@@H](NC(=O)[C@H](CC(=O)O)NC(=O)[C@H](CC(C)C)NC(=O)[C@H](Cc1ccc(O)cc1)NC(=O)[C@H](CCCCN)NC(=O)[C@H](CO)NC(=O)[C@H](CC(C)C)NC(=O)[C@H](CC(=O)O)NC(=O)[C@H](CO)NC(=O)[C@@H](NC(=O)[C@H](Cc1ccccc1)NC(=O)[C@@H](NC(=O)CNC(=O)[C@H](CCC(N)=O)NC(=O)C(C)(C)NC(=O)[C@@H](N)Cc1c[nH]cn1)[C@@H](C)O)[C@@H](C)O)C(C)C)C(C)C)C(=O)N[C@@H](CCCCNC(=O)CC[C@H](NC(=O)COCCOCCNC(=O)COCCOCCNC(=O)CC[C@H](NC(=O)CC[C@H](NC(=O)CCCCCCCCCCCCCCCCC(=O)O)C(=O)O)C(=O)O)C(=O)O)C(=O)N[C@H](C(N)=O)[C@@H](C)O
notes: also called Chem. 40; Chem 40
B8: N^ε28-[(4S)-4-carboxy-4-[[2-[2-[2-[[2-[2-[2-[[(4S)-4-carboxy-4-[[(4S)-4-carboxy-4-(17-carboxyheptadecanoylamino)butanoyl]amino]butanoyl]amino]ethoxy]ethoxy]acet … (peptide)
peptide: H[Ac4c]QGTFTSDLSKYLESRRAQEFVQWLIK([γGlu-AEEA-AEEA-γGlu-γGlu-C18 diacid])T-NH2
modifications: N-terminus assumed
SMILES: CC[C@H](C)[C@H](NC(=O)[C@H](CC(C)C)NC(=O)[C@H](Cc1c[nH]c2ccccc12)NC(=O)[C@H](CCC(N)=O)NC(=O)[C@@H](NC(=O)[C@H](Cc1ccccc1)NC(=O)[C@H](CCC(=O)O)NC(=O)[C@H](CCC(N)=O)NC(=O)[C@H](C)NC(=O)[C@H](CCCNC(=N)N)NC(=O)[C@H](CCCNC(=N)N)NC(=O)[C@H](CO)NC(=O)[C@H](CCC(=O)O)NC(=O)[C@H](CC(C)C)NC(=O)[C@H](Cc1ccc(O)cc1)NC(=O)[C@H](CCCCN)NC(=O)[C@H](CO)NC(=O)[C@H](CC(C)C)NC(=O)[C@H](CC(=O)O)NC(=O)[C@H](CO)NC(=O)[C@@H](NC(=O)[C@H](Cc1ccccc1)NC(=O)[C@@H](NC(=O)CNC(=O)[C@H](CCC(N)=O)NC(=O)C1(NC(=O)[C@@H](N)Cc2c[nH]cn2)CCC1)[C@@H](C)O)[C@@H](C)O)C(C)C)C(=O)N[C@@H](CCCCNC(=O)CC[C@H](NC(=O)COCCOCCNC(=O)COCCOCCNC(=O)CC[C@H](NC(=O)CC[C@H](NC(=O)CCCCCCCCCCCCCCCCC(=O)O)C(=O)O)C(=O)O)C(=O)O)C(=O)N[C@H](C(N)=O)[C@@H](C)O
notes: also called Chem. 38; Chem 38

Columns and labels:
human GLP-1 receptor [1] = molecular target: T1, human GLP-1 receptor (human, UniProt P43220 24-463); test: cell-based or functional assay
human glucagon receptor [2] = molecular target: T2, human glucagon receptor (human, UniProt P47871 26-477); test: cell-based or functional assay
human glucagon receptor [3] = molecular target: T2, human glucagon receptor; test: displacement of [125I]-glucagon from BHK membranes with human glucagon receptor, SPA, no serum albumin
human GLP-1 receptor [4] = molecular target: T1, human GLP-1 receptor; test: displacement of [125I]-GLP-1-(7-36)NH2 from BHK membranes with human GLP-1R, SPA, no serum albumin

T2 sequence (P47871 26-477): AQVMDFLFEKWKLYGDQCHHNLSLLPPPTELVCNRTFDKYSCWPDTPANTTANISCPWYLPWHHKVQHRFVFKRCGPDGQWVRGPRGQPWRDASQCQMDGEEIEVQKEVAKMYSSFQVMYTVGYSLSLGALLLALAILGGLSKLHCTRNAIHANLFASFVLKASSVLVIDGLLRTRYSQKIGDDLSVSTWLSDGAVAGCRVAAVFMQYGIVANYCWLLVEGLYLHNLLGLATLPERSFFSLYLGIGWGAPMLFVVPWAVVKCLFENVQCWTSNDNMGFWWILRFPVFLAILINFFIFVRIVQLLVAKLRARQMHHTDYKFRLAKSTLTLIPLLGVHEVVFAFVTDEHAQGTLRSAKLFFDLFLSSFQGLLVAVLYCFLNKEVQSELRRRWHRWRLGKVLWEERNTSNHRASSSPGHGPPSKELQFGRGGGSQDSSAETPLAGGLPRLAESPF

| GLP-1R EC50 (pM) [Assay (I)(a)], CRE luciferase reporter, BHK cells (human GLP-1 receptor [1]) [pM] | GlucagonR EC50 (pM), [Assay (I)(b)], CRE luciferase reporter, BHK cells (human glucagon receptor [2]) [pM] | IC50 (human glucagon receptor [3]) [nM] | IC50 (human GLP-1 receptor [4]) [nM] | Binder |
| --- | --- | --- | --- | --- |
| 2 | 245 | 31.6 | 0.1 | B1 |
| 4 | 98 | 6.6 | 1.5 | B2 |
| 4 | 22 | 6.5 | 1.5 | B3 |
| 7 | 8 | 6.9 | 2.3 | B4 |
| 2 | 7 | 0.9 | 0.3 | B5 |
| 1 | 24 | 4.6 | 0.1 | B6 |
| 3 | 30 | 7.1 | 1.2 | B7 |
| 2 | 12 | 2.7 | 0.3 | B8 |
